Paper PMC6145688

Target: Recombinant active autotaxin-β (ATXβ), Q13822
Assay: cell adhesion assay; plates coated with recombinant ATXβ; cells in HEPES-buffered Tyrode solution with 2 mM Mn2+, rested 1 h at 37° C, seeded 1 h, attached cells counted; cells preincubated 1 h with blocking antibodies (10 µg/mL) or peptides (50 µg/mL)
Conditions: remark: other sources report otherwise

B1: Integrin αvβ3, P06756 31-1048; P05106 27-788 (receptor)
chain 1: FNLDVDSPAEYSGPEGSYFGFAVDFFVPSASSRMFLLVGAPKANTTQPGIVEGGQVLKCDWSSTRRCQPIEFDATGNRDYAKDDPLEFKSHQWFGASVRSKQDKILACAPLYHWRTEMKQEREPVGTCFLQDGTKTVEYAPCRSQDIDADGQGFCQGGFSIDFTKADRVLLGGPGSFYWQGQLISDQVAEIVSKYDPNVYSIKYNNQLATRTAQAIFDDSYLGYSVAVGDFNGDGIDDFVSGVPRAARTLGMVYIYDGKNMSSLYNFTGEQMAAYFGFSVAATDINGDDYADVFIGAPLFMDRGSDGKLQEVGQVSVSLQRASGDFQTTKLNGFEVFARFGSAIAPLGDLDQDGFNDIAIAAPYGGEDKKGIVYIFNGRSTGLNAVPSQILEGQWAARSMPPSFGYSMKGATDIDKNGYPDLIVGAFGVDRAILYRARPVITVNAGLEVYPSILNQDNKTCSLPGTALKVSCFNVRFCLKADGKGVLPRKLNFQVELLLDKLKQKGAIRRALFLYSRSPSHSKNMTISRGGLMQCEELIAYLRDESEFRDKLTPITIFMEYRLDYRTAADTTGLQPILNQFTPANISRQAHILLDCGEDNVCKPKLEVSVDSDQKKIYIGDDNPLTLIVKAQNQGEGAYEAELIVSIPLQADFIGVVRNNEALARLSCAFKTENQTRQVVCDLGNPMKAGTQLLAGLRFSVHQQSEMDTSVKFDLQIQSSNLFDKVSPVVSHKVDLAVLAAVEIRGVSSPDHVFLPIPNWEHKENPETEEDVGPVVQHIYELRNNGPSSFSKAMLHLQWPYKYNNNTLLYILHYDIDGPMNCTSDMEINPLRIKISSLQTTEKNDTVAGQGERDHLITKRDLALSEGDIHTLGCGVAQCLKIVCQVGRLDRGKSAILYVKSLLWTETFMNKENQNHSYSLKSSASFNVIEFPYKNLPIEDITNSTLVTTNVTWGIQPAPMPVPVWVIILAVLAGLLLLAVLVFVMYRMGFFKRVRPPQEEQEREQLQPHENGEGNSET
chain 2: GPNICTTRGVSSCQQCLAVSPMCAWCSDEALPLGSPRCDLKENLLKDNCAPESIEFPVSEARVLEDRPLSDKGSGDSSQVTQVSPQRIALRLRPDDSKNFSIQVRQVEDYPVDIYYLMDLSYSMKDDLWSIQNLGTKLATQMRKLTSNLRIGFGAFVDKPVSPYMYISPPEALENPCYDMKTTCLPMFGYKHVLTLTDQVTRFNEEVKKQSVSRNRDAPEGGFDAIMQATVCDEKIGWRNDASHLLVFTTDAKTHIALDGRLAGIVQPNDGQCHVGSDNHYSASTTMDYPSLGLMTEKLSQKNINLIFAVTENVVNLYQNYSELIPGTTVGVLSMDSSNVLQLIVDAYGKIRSKVELEVRDLPEELSLSFNATCLNNEVIPGLKSCMGLKIGDTVSFSIEAKVRGCPQEKEKSFTIKPVGFKDSLIVQVTFDCDCACQAQAEPNSHRCNNGNGTFECGVCRCGPGWLGSQCECSEEDYRPSQQDECSPREGQPVCSQRGECLCGQCVCHSSDFGKITGKYCECDDFSCVRYKGEMCSGHGQCSCGDCLCDSDWTGYYCNCTTRTDTCMSSNGLLCSGRGKCECGSCVCIQPGSYGDTCEKCPTCPDACTFKKECVECKKFDRGALHDENTCNRYCRDEIESVKELKDTGKDAVNCTYKNEDDCVVRFQYYEDSSGKSILYVVEEPECPKGPDILVVLLSVMGAILLIGLAALLIWKLLITIHDRKEFAKFEEERARAKWDTANNPLYKEATSTFTNITYRGT
- percent inhibition of DU145 cell adhesion on ATXβ by LM609 (anti-αvβ3): 60%
- percent inhibition of KHOS cell adhesion on ATXβ by LM609 (anti-αvβ3): 15%
